The values below come from PMC10397247.

What all share (assay): two-hybrid library CCmax;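 note: natural log of median RNA to DNA barcode read ratio; higher means stronger binding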
Assay [1] has as its target T1, 4H1198-AA.
T1 chain: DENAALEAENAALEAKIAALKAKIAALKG

The target of assay [2] is T2, 4H1350-AA.
T2 chain: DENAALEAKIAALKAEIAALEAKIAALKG
As to conditions: mean of both orientations.

Assay [3] deals with T3, 4H1405-AA.
T3 chain: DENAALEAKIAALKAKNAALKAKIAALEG
As to conditions: mean of both orientations.

The target in assay [4] is T4, 4H2211-AA.
T4 chain: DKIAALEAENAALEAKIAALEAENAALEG
As to conditions: mean of both orientations.

Assay [5] deals with T5, 4H2238-AA.
T5 chain: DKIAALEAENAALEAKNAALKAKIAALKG
As to conditions: mean of both orientations.

In assay [6] the target is T6, 4H2513-AA.
T6 chain: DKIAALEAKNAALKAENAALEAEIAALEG
The settings on record: mean of both orientations.

Assay [7] has as its target T7, 4H2536-AA.
T7 chain: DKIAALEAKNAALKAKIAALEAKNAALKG
As to conditions: mean of both orientations.

Assay [8] addresses T8, 4H2608-AA.
T8 chain: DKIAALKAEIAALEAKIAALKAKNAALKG
As to conditions: mean of both orientations.

For assay [9], the target named is T9, 4H2614-AA.
T9 chain: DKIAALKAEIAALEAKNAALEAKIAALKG
The settings on record: mean of both orientations.

The target in assay [10] is T10, 4H2726-AA.
T10 chain: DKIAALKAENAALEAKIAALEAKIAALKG
The settings on record: mean of both orientations.

The target in assay [11] is T11, 4H2935-AA.
T11 chain: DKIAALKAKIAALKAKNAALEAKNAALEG
The settings on record: mean of both orientations.

Assay [12] has as its target T12, 4H327-AA.
T12 chain: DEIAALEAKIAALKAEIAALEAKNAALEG
The settings on record: mean of both orientations.

The target in assay [13] is T13, 4H341-AA.
T13 chain: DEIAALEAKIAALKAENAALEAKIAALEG

The target of assay [14] is T14, 4H3605-AA.
T14 chain: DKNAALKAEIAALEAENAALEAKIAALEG
The settings on record: mean of both orientations.

In assay [15] the target is T15, 4H3625-AA.
T15 chain: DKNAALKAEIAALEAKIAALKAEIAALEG
The settings on record: mean of both orientations.

The target of assay [16] is T16, 4H3664-AA.
T16 chain: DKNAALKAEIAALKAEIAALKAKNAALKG
The settings on record: mean of both orientations.

Assay [17] concerns the target T17, 4H369-AA.
T17 chain: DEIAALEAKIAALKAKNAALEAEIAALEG

Assay [18] concerns the target T18, 4H3922-AA.
T18 chain: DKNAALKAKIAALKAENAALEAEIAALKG
The settings on record: mean of both orientations.

Assay [19] deals with T19, 4H4033-AA.
T19 chain: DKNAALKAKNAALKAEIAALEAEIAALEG
The settings on record: mean of both orientations.

Assay [20] concerns the target T20, 4H481-AA.
T20 chain: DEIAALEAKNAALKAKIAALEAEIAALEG
As to conditions: mean of both orientations.

In assay [21] the target is T21, 4H55-AA.
T21 chain: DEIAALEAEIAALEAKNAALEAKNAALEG
As to conditions: mean of both orientations.

Assay [22] concerns the target T22, 4H662-AA.
T22 chain: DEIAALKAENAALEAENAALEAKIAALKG
The settings on record: mean of both orientations.

In assay [23] the target is T23, 4H1710-AA.
T23 chain: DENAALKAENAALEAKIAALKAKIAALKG

Assay [24] concerns the target T24, 4H1985-AA.
T24 chain: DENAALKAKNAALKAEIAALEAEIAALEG
As to conditions: mean of both orientations.

Assay [25] concerns the target T25, 4H2187-AA.
T25 chain: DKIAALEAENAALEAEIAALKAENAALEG

In assay [26] the target is T26, 4H233-AA.
T26 chain: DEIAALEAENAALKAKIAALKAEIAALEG
As to conditions: mean of both orientations.

The target of assay [27] is T27, 4H2512-AA.
T27 chain: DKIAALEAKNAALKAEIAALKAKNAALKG
The settings on record: mean of both orientations.

Assay [28] deals with T28, 4H2646-AA.
T28 chain: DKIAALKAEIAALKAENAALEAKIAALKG
As to conditions: mean of both orientations.

Assay [29] concerns the target T29, 4H2687-AA.
T29 chain: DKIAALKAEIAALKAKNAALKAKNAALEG
As to conditions: mean of both orientations.

For assay [30], the target named is T30, 4H2705-AA.
T30 chain: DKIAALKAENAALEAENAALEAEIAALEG
As to conditions: mean of both orientations.

Assay [31] addresses T31, 4H2758-AA.
T31 chain: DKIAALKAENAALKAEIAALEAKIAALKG
The settings on record: mean of both orientations.

For assay [32], the target named is T32, 4H278-AA.
T32 chain: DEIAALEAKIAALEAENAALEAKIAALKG
The settings on record: mean of both orientations.

In assay [33] the target is T33, 4H2873-AA.
T33 chain: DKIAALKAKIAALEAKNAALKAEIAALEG
The settings on record: mean of both orientations.

Assay [34] deals with T34, 4H2985-AA.
T34 chain: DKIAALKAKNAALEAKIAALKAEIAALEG
The settings on record: mean of both orientations.

For assay [35], the target named is T35, 4H3134-AA.
T35 chain: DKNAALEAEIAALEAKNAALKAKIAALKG
As to conditions: mean of both orientations.

For assay [36], the target named is T36, 4H3409-AA.
T36 chain: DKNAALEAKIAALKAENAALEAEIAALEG
The settings on record: mean of both orientations.

In assay [37] the target is T37, 4H390-AA.
T37 chain: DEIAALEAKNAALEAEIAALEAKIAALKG
The settings on record: mean of both orientations.

Assay [38] has as its target T38, 4H3940-AA.
T38 chain: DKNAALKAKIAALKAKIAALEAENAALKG
The settings on record: mean of both orientations.

Assay [39] has as its target T39, 4H510-AA.
T39 chain: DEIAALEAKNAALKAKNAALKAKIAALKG
The settings on record: mean of both orientations.

Assay [40] concerns the target T40, 4H775-AA.
T40 chain: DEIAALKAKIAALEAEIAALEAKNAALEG
The settings on record: mean of both orientations.

The target of assay [41] is T41, 4H816-AA.
T41 chain: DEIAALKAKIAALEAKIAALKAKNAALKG
As to conditions: mean of both orientations.

The target of assay [42] is T42, 4H87-AA.
T42 chain: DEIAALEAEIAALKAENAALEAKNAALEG
The settings on record: mean of both orientations.

Take DENAALEAENAALEAKIAALKAKIAALKG [4H1198-AA]: the interaction score in [1] was -0.611; in assay [2] it was 0.496; in assay [3] it was -0.758; in assay [4], -1.3; in assay [5], -0.785; in [6], 1.14. In addition, the interaction score in assay [7] is -0.886; in [8] it was 0.869; in assay [9], -0.463; in assay [10] it was -0.438; in assay [11] it was -1.5; in assay [12] it was -0.574. In addition, the interaction score in assay [13] was -2.13; in [14], 0.0472; in [15], -0.0176; in assay [16], 1.22; in assay [17], -1.45; in assay [18], 0.661. In addition, the interaction score was 2.18 in [19], 1.9 in assay [20], -0.467 in assay [21] and -1.15 in assay [22].

In the case of DENAALKAENAALEAKIAALKAKIAALKG [4H1710-AA], the interaction score is -0.109 in assay [23]; 2.15 in assay [24]; -0.907 in assay [25]; 1.63 in assay [26]; -0.967 in assay [27]; -1.37 in assay [28]. Further, the interaction score in assay [29] is -1.29; in assay [30], -0.626; in assay [31] it was 1.82; in [32], -0.799; in assay [33] it was -0.937; in assay [34], 0.52. For the same molecule, the interaction score in [35] was -0.882; in assay [36], -0.675; in assay [15] it was -0.181; in [37], 1.21; in [38], -0.657; in assay [39], -0.836. Also, the interaction score in assay [40] was -0.259; in assay [41], -0.912; in assay [42], -1.16.
